Data taken from publication PMC3229523, “Identification of Lactoferricin B Intracellular Targets Using an Escherichia coli Proteome Chip” (PLoS ONE, 2011).
Ends that are not written are not given here. * marks the point of attachment. Biotin = O=C1N[C@H]2[C@H](CS[C@H]2CCCCC(=O)*)N1

How the values were obtained:
Experiment in all cases: peptide or protein array; E. coli proteome chip: purified His-tagged proteins printed in duplicate on Fullmoon slides, blocked with 1% BSA; 10 nM N-terminal biotinylated LfcinB with 1% BSA, room temperature, 1 h; detected with DyLight 649-labeled streptavidin, ratio to DyLight 549-labeled anti-His antibody; ProCAT normalisation, local cut-off; triplicate chips
Conditions in all cases: both partners purified
YheH = molecular target: T1, YheH (E. coli K-12, UniProt P45760 7-125)
T1 construct: YheH, E. coli K-12
T1 sequence (looked up): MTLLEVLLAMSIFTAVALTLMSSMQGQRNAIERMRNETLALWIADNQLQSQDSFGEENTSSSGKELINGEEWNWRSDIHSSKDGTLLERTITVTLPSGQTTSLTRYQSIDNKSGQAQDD

AgaY = molecular target: T2, AgaY (E. coli K-12, UniProt P0AB74 1-286)
T2 construct: AgaY, E. coli K-12
T2 sequence (P0AB74 whole entry): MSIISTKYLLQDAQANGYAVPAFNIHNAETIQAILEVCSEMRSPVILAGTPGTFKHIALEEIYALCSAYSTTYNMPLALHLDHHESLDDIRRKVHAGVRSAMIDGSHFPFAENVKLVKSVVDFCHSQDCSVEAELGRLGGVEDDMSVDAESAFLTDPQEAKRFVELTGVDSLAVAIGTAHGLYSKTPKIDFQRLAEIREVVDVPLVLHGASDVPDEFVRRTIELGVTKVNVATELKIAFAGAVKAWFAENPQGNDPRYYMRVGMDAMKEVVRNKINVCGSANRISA

HolB = molecular target: T3, HolB (E. coli K-12, UniProt P28631 1-334)
T3 construct: HolB, E. coli K-12
T3 sequence (P28631 whole entry): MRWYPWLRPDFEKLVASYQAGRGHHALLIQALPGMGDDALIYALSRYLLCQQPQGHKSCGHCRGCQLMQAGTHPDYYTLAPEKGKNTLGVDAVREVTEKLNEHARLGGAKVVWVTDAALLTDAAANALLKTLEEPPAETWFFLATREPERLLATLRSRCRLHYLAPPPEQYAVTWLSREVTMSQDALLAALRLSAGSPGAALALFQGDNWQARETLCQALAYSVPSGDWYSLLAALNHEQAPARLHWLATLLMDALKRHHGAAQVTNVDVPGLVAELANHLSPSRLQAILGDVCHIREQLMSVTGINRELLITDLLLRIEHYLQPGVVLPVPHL

YibN = molecular target: T4, YibN (E. coli K-12, UniProt P0AG27 1-143)
T4 construct: YibN, E. coli K-12
T4 sequence (looked up): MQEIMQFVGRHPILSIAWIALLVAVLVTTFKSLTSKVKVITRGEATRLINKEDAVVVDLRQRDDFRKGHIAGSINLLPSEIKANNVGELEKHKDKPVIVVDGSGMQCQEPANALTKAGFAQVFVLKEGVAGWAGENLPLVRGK

RecC = molecular target: T5, RecC (E. coli K-12, UniProt P07648 1-1122)
T5 construct: RecC, E. coli K-12
T5 sequence (looked up): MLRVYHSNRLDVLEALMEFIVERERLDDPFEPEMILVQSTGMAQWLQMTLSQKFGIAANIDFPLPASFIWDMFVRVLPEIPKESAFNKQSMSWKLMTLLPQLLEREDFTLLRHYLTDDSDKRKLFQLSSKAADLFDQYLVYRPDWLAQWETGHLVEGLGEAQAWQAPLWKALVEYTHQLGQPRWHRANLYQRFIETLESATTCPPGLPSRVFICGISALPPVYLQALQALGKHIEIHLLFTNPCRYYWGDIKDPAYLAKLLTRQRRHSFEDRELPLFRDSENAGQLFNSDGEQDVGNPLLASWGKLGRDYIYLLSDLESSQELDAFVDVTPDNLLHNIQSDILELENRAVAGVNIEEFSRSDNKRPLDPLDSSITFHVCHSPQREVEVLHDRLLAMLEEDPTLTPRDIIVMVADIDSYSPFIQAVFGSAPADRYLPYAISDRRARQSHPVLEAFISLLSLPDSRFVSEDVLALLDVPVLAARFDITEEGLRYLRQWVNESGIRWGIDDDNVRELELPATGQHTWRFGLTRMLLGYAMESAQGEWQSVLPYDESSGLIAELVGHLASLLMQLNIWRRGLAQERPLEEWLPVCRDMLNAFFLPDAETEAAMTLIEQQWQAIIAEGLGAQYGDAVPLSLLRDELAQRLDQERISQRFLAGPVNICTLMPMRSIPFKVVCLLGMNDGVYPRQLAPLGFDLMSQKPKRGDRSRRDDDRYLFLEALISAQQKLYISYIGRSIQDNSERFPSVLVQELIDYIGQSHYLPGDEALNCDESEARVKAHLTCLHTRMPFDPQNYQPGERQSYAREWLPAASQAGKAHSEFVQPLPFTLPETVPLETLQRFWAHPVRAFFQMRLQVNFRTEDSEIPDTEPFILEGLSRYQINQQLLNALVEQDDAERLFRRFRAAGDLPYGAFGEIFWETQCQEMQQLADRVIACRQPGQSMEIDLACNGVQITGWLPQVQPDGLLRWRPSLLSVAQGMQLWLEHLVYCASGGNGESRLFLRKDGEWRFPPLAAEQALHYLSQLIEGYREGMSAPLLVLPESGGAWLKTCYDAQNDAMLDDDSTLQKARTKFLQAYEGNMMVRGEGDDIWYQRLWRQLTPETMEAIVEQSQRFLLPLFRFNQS

YpdH = molecular target: T6, YpdH (E. coli K-12, UniProt P69808 1-108)
T6 construct: YpdH, E. coli K-12
T6 sequence (looked up): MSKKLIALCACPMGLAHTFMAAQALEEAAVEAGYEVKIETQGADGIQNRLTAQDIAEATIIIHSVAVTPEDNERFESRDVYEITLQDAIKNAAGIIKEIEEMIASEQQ

YhiF = molecular target: T7, YhiF (E. coli K-12, UniProt P37195 1-176)
T7 construct: YhiF, E. coli K-12
T7 sequence (looked up): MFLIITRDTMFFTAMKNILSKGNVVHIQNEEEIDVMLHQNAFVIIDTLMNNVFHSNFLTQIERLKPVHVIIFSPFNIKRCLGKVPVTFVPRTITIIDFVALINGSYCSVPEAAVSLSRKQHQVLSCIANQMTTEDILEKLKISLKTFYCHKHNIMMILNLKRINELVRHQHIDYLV

Measured: binding result

B1: N-terminal biotinylated Lactoferricin B (peptide, UniProt P24627 36-60, looked up)
peptide: Biotin-FKCRRWQWRMKKLGAPSITCVRRAF
modifications: ends and bridges not checked
notes: lactoferricin B (LfcinB), cationic antimicrobial peptide of 25 amino acids; also called biotinylated LfcinB; biotin-labeled LfcinB; source: bought: Kelowna Inc
binds: all assays above
